What was measured:
Settings in all cases: both partners purified
[1] = biological target: T1, hen egg lysozyme (Gallus gallus (hen egg white), UniProt P00698); experiment: SPR; Biacore T200; lysozyme immobilised on Sensor Chip CM5 by amine coupling to 200 RU; VHH injected 300 s, dissociation 600 s; running buffer PBST (PBS, 0.005% Tween 20); duplicate; 1:1 binding model
T1 construct: hen egg lysozyme (HEL), antigen of VHH D3-L11; also in the complex structure PDB 6JB8; also called HEL; antigen lysozyme; source: bought: Sigma-Aldrich, Cat No. L6876 (named for the ELISA)
T1 sequence (P00698 19-147): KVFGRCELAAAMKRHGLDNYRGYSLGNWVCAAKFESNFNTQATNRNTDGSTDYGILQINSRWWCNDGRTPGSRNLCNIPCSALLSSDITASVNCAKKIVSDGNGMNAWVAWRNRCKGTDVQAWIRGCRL

[2] = biological target: T2, hen egg lysozyme (Gallus gallus (hen egg white), UniProt P00698); experiment: SPR; Biacore T200; lysozyme immobilised on Sensor Chip CM5 by amine coupling (200 RU); VHH injected 300 s, dissociation 600 s in PBST (PBS, 0.005% Tween 20); 1:1 binding model; duplicate
T2 construct: hen egg lysozyme (HEL), the antigen of D3-L11; also in PDB 6JB8; The supplier is named for the ELISA only; also called HEL; antigen lysozyme; source: bought: Sigma-Aldrich, Cat No. L6876
T2 sequence (P00698 19-147): as above

[3] = biological target: T1, hen egg lysozyme; experiment: ELISA; lysozyme (1 ug/mL) coated on 384-well MaxiSorp plate overnight at 4 °C; serial concentrations of VHH in 5% BlockingOne in TBST, 1 h at room temperature; detected with Penta-His HRP conjugate

fold decrease in affinity (KD) against wild type [1] [fold] | Kd [2] [pM] | Binder | also measured
< 10 | – | D3-L11 A79W (VHH, as the VHH chain of m2 (D3-L11, PDB 6JB8) with the stated substitution; Second-round mutant; same construct as m2; also called W mutant; source: ExpiCHO, transient transfection, purified from supernatant (His Mag Sepharose excel); not shown: His6 (after a SAG tripeptide linker), C-terminal, kept) VHH: DVQLVESGGGSVQAGGSLRLSCAASGSTDSIEYMTWFRQAPGKAREGVAALYTHTGNTYYTDSVKGRFTISQDKAKNMWYLRMDSVKSEDTAIYTCGATRKYVPVRFALDQSSYDYWGQGTQVTVSS | –
– | 5.57 ± 0.04 | D3-L11 A79Y (VHH, as the VHH chain of Sm1 (D3-L11 wild type, PDB 6JB8) with A79Y; SAG tripeptide linker before the C-terminal 6xHis tag; source: ExpiCHO, transient transfection, purified from supernatant (His Mag Sepharose excel); not shown: His6, C-terminal, kept) VHH: DVQLVESGGGSVQAGGSLRLSCAASGSTDSIEYMTWFRQAPGKAREGVAALYTHTGNTYYTDSVKGRFTISQDKAKNMYYLRMDSVKSEDTAIYTCGATRKYVPVRFALDQSSYDYWGQGTQVTVSS | –
– | 3.17 ± 0.19 | anti-lysozyme VHH D3-L11, wild type (VHH, anti-hen egg lysozyme VHH D3-L11, 127 amino acids; A SAG tripeptide linker stands between the VHH and the C-terminal 6xHis tag; also called WT; source: ExpiCHO, transient transfection, purified from supernatant (His Mag Sepharose excel); not shown: His6, C-terminal, kept) VHH: DVQLVESGGGSVQAGGSLRLSCAASGSTDSIEYMTWFRQAPGKAREGVAALYTHTGNTYYTDSVKGRFTISQDKAKNMAYLRMDSVKSEDTAIYTCGATRKYVPVRFALDQSSYDYWGQGTQVTVSS | –

The next lines start with the binder.

Binder | fold decrease in affinity (KD) against wild type [1] [fold] | Kd [2] [pM] | also measured
D3-L11 A79M (VHH, as the VHH chain of Sm1 (D3-L11 wild type, PDB 6JB8) with A79M; SAG tripeptide linker before the C-terminal 6xHis tag; source: ExpiCHO, transient transfection, purified from supernatant (His Mag Sepharose excel); not shown: His6, C-terminal, kept) VHH: DVQLVESGGGSVQAGGSLRLSCAASGSTDSIEYMTWFRQAPGKAREGVAALYTHTGNTYYTDSVKGRFTISQDKAKNMMYLRMDSVKSEDTAIYTCGATRKYVPVRFALDQSSYDYWGQGTQVTVSS | – | 6.91 ± 0.1 | –
D3-L11 A79L (VHH, as the VHH chain of Sm1 (D3-L11 wild type, PDB 6JB8) with A79L; SAG tripeptide linker before the C-terminal 6xHis tag; source: ExpiCHO, transient transfection, purified from supernatant (His Mag Sepharose excel); not shown: His6, C-terminal, kept) VHH: DVQLVESGGGSVQAGGSLRLSCAASGSTDSIEYMTWFRQAPGKAREGVAALYTHTGNTYYTDSVKGRFTISQDKAKNMLYLRMDSVKSEDTAIYTCGATRKYVPVRFALDQSSYDYWGQGTQVTVSS | – | 6.54 ± 0.03 | –
D3-L11 A79I (VHH, as the VHH chain of m2 (D3-L11, PDB 6JB8) with the stated substitution; Second-round mutant; same construct as m2; also called I mutant; source: ExpiCHO, transient transfection, purified from supernatant (His Mag Sepharose excel); not shown: His6 (after a SAG tripeptide linker), C-terminal, kept) VHH: DVQLVESGGGSVQAGGSLRLSCAASGSTDSIEYMTWFRQAPGKAREGVAALYTHTGNTYYTDSVKGRFTISQDKAKNMIYLRMDSVKSEDTAIYTCGATRKYVPVRFALDQSSYDYWGQGTQVTVSS | 1.6 | – | –
D3-L11 A79R (VHH, as the VHH chain of m2 (D3-L11, PDB 6JB8) with the stated substitution; Second-round mutant; same construct as m2; also called R mutant; source: ExpiCHO, transient transfection, purified from supernatant (His Mag Sepharose excel); not shown: His6 (after a SAG tripeptide linker), C-terminal, kept) VHH: DVQLVESGGGSVQAGGSLRLSCAASGSTDSIEYMTWFRQAPGKAREGVAALYTHTGNTYYTDSVKGRFTISQDKAKNMRYLRMDSVKSEDTAIYTCGATRKYVPVRFALDQSSYDYWGQGTQVTVSS | < 10 | – | –
D3-L11 A79K (VHH, as the VHH chain of m2 (D3-L11, PDB 6JB8) with the stated substitution; Second-round mutant; same construct as m2; Too little protein for SPR; also called K mutant; source: ExpiCHO, transient transfection, purified from supernatant (His Mag Sepharose excel); not shown: His6 (after a SAG tripeptide linker), C-terminal, kept) VHH: DVQLVESGGGSVQAGGSLRLSCAASGSTDSIEYMTWFRQAPGKAREGVAALYTHTGNTYYTDSVKGRFTISQDKAKNMKYLRMDSVKSEDTAIYTCGATRKYVPVRFALDQSSYDYWGQGTQVTVSS | – | – | binding result [3]: binds
D3-L11 A79E (VHH, as the VHH chain of m2 (D3-L11, PDB 6JB8) with the stated substitution; Second-round mutant; same construct as m2; Too little protein for SPR; also called E mutant; source: ExpiCHO, transient transfection, purified from supernatant (His Mag Sepharose excel); not shown: His6 (after a SAG tripeptide linker), C-terminal, kept) VHH: DVQLVESGGGSVQAGGSLRLSCAASGSTDSIEYMTWFRQAPGKAREGVAALYTHTGNTYYTDSVKGRFTISQDKAKNMEYLRMDSVKSEDTAIYTCGATRKYVPVRFALDQSSYDYWGQGTQVTVSS | – | – | binding result [3]: binds
D3-L11 A79P (VHH, as the VHH chain of m2 (D3-L11, PDB 6JB8) with the stated substitution; Second-round mutant; same construct as m2; Too little protein for SPR; also called P mutant; source: ExpiCHO, transient transfection, purified from supernatant (His Mag Sepharose excel); not shown: His6 (after a SAG tripeptide linker), C-terminal, kept) VHH: DVQLVESGGGSVQAGGSLRLSCAASGSTDSIEYMTWFRQAPGKAREGVAALYTHTGNTYYTDSVKGRFTISQDKAKNMPYLRMDSVKSEDTAIYTCGATRKYVPVRFALDQSSYDYWGQGTQVTVSS | – | – | binding result [3]: binds
D3-L11 A79F (VHH, as the VHH chain of m2 (D3-L11, PDB 6JB8) with the stated substitution; First-round mutant; same construct as m2; also called F mutant; source: ExpiCHO, transient transfection, purified from supernatant (His Mag Sepharose excel); not shown: His6 (after a SAG tripeptide linker), C-terminal, kept) VHH: DVQLVESGGGSVQAGGSLRLSCAASGSTDSIEYMTWFRQAPGKAREGVAALYTHTGNTYYTDSVKGRFTISQDKAKNMFYLRMDSVKSEDTAIYTCGATRKYVPVRFALDQSSYDYWGQGTQVTVSS | < 10 | – | –
D3-L11 A79H (VHH, as the VHH chain of m2 (D3-L11, PDB 6JB8) with the stated substitution; Second-round mutant; same construct as m2; also called H mutant; source: ExpiCHO, transient transfection, purified from supernatant (His Mag Sepharose excel); not shown: His6 (after a SAG tripeptide linker), C-terminal, kept) VHH: DVQLVESGGGSVQAGGSLRLSCAASGSTDSIEYMTWFRQAPGKAREGVAALYTHTGNTYYTDSVKGRFTISQDKAKNMHYLRMDSVKSEDTAIYTCGATRKYVPVRFALDQSSYDYWGQGTQVTVSS | < 10 | – | –
D3-L11 A79T (VHH, as the VHH chain of Sm1 (D3-L11 wild type, PDB 6JB8) with A79T; SAG tripeptide linker before the C-terminal 6xHis tag; source: ExpiCHO, transient transfection, purified from supernatant (His Mag Sepharose excel); not shown: His6, C-terminal, kept) VHH: DVQLVESGGGSVQAGGSLRLSCAASGSTDSIEYMTWFRQAPGKAREGVAALYTHTGNTYYTDSVKGRFTISQDKAKNMTYLRMDSVKSEDTAIYTCGATRKYVPVRFALDQSSYDYWGQGTQVTVSS | – | 13.1 ± 0.4 | –
D3-L11 A79T (VHH, as the VHH chain of m2 (D3-L11, PDB 6JB8) with the stated substitution; Second-round mutant; same construct as m2; also called T mutant; source: ExpiCHO, transient transfection, purified from supernatant (His Mag Sepharose excel); not shown: His6 (after a SAG tripeptide linker), C-terminal, kept) VHH: DVQLVESGGGSVQAGGSLRLSCAASGSTDSIEYMTWFRQAPGKAREGVAALYTHTGNTYYTDSVKGRFTISQDKAKNMTYLRMDSVKSEDTAIYTCGATRKYVPVRFALDQSSYDYWGQGTQVTVSS | < 10 | – | –
D3-L11 A79N (VHH, as the VHH chain of Sm1 (D3-L11 wild type, PDB 6JB8) with A79N; SAG tripeptide linker before the C-terminal 6xHis tag; source: ExpiCHO, transient transfection, purified from supernatant (His Mag Sepharose excel); not shown: His6, C-terminal, kept) VHH: DVQLVESGGGSVQAGGSLRLSCAASGSTDSIEYMTWFRQAPGKAREGVAALYTHTGNTYYTDSVKGRFTISQDKAKNMNYLRMDSVKSEDTAIYTCGATRKYVPVRFALDQSSYDYWGQGTQVTVSS | – | 8.04 ± 0.07 | –

From PMC10039853, “Increasing the melting temperature of VHH with the in silico free energy score” (Scientific Reports, 2023)
